From PMC7939381, “MMP activation–associated aminopeptidase N reveals a bivalent 14-3-3 binding motif” (The Journal of Biological Chemistry, 2020) come the findings set out here.

B1: 14-3-3σ ΔC (aa 1–231) (domain or fragment, human, UniProt P31947 1-231, looked up)
chain: MERASLIQKAKLAEQAERYEDMAAFMKGAVEKGEELSCEERNLLSVAYKNVVGGQRAAWRVLSSIEQKSNEEGSEEKGPEVREYREKVETELQGVCDTVLGLLDSHLIKEAGDAESRVFYLKMKGDYYRYLAEVATGDDKKRIIDSARSAYQEAMDISKKEMPPTNPIRLGLALNFSVFHYEIANSPEEAISLAKTTFDEAMADLHTLSEDSYKDSTLIMQLLRDNLTLWT
notes: 14-3-3 sigma (stratifin), human, C-terminally truncated, residues 1-231; One monomer per asymmetric unit; the biological dimer is generated by crystallographic symmetry; also called 14-3-3 ΔC aa 1–231; source: E. coli BL21(DE3), purified (HisTrap, TEV cleavage, reverse HisTrap, SEC); not shown: His6, N-terminal, cleaved
B2: peptide 1, APN 38–46 pSer43, as used in ITC (peptide)
peptide: NKNAN[pS]SPV
notes: aminopeptidase N (APN, CD13), human, residues 38-46; source: synthetic peptide (Fmoc SPPS, HPLC purified)
B3: 14-3-3η, full length, N-terminally His6-tagged (natural protein, human, UniProt Q04917 1-246, looked up)
chain: MGDREQLLQRARLAEQAERYDDMASAMKAVTELNEPLSNEDRNLLSVAYKNVVGARRSSWRVISSIEQKTMADGNEKKLEKVKAYREKIEKELETVCNDVLSLLDKFLIKNCNDFQYESKVFYLKMKGDYYRYLAEVASGEKKNSVVEASEAAYKEAFEISKEQMQPTHPIRLGLALNFSVFYYEIQNAPEQACLLAKQAFDDAIAELDTLNEDSYKDSTLIMQLLRDNLTLWTSDQQDEEAGEGN
notes: 14-3-3 eta, human, full length; also called His6-14-3-3η; source: E. coli BL21(DE3), purified (HisTrap, SEC); also in E. coli cell lysate (pulldown); not shown: His6, N-terminal, kept

Data set [1] concerns the molecule itself. Description: crystal structure; 14-3-3σ ΔC (12.5 g/l) mixed 1:2 with peptide 1; sitting drops, 100 mM HEPES pH 7.3, 0.19 M CaCl2, 5% glycerol, 28% PEG400, 4 °C; space group C222(1), 1.60 Å.
Data set [2] concerns the target B3. Description: ITC; 14-3-3η (500 µM; 250 µM for peptide 11) titrated into peptide (50 µM; 12.5 µM for peptide 11), 18 injections; 50 mM HEPES pH 7.4, 250 mM NaCl, 20 mM MgCl2; 25 °C. As to conditions: both partners purified.
Data set [3] has as its target T1, 14-3-3β/α, full length, N-terminally His6-tagged (human, UniProt P31946 1-246).
T1 construct: 14-3-3 beta/alpha, human, full length; also called His6-14-3-3β/α; source: E. coli BL21(DE3), purified (HisTrap, SEC); also in E. coli cell lysate (pulldown); not shown: His6, N-terminal, kept
T1 sequence (looked up): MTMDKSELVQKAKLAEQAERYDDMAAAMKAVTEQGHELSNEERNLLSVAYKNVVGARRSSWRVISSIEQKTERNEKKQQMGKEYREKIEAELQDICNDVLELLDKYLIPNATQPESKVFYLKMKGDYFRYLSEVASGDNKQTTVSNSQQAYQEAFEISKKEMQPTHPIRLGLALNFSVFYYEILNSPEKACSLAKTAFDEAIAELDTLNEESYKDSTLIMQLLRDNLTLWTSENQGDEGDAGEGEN
Description: fluorescence polarisation; direct binding: dilution series of 14-3-3 protein added to FITC-labeled peptide (30 nM stock, 5 µl in 15 µl); 10 mM HEPES pH 7.4, 150 mM NaCl, 2 mM DTT, 0.01% Tween 20; 60 min at room temperature, read at 25 °C; four-parameter fit. As to conditions: both partners purified.

The target of data set [4] is B3. The description is as above. The settings on record: both partners purified.
Data set [5] addresses B2. Nature of the data set: ITC; 14-3-3η (500 µM; 250 µM for peptide 11) titrated into peptide (50 µM; 12.5 µM for peptide 11), 18 injections; 50 mM HEPES pH 7.4, 250 mM NaCl, 20 mM MgCl2; 25 °C. As to conditions: both partners purified.
The data set “14-3-3σ ΔC (aa 1–231)” deals with B1. Nature of the data set: crystal structure; 14-3-3σ ΔC co-crystallised with peptide 11; sitting drops, 100 mM HEPES pH 7.7, 0.19 M CaCl2, 5% glycerol, 27% PEG400; space group C222(1), 1.20 Å; also solved in P1. The settings on record: both partners purified.
The target in data set [6] is T2, 14-3-3σ, full length, N-terminally His6-tagged (human, UniProt P31947 1-248).
T2 construct: 14-3-3 sigma (stratifin), human, full length; no tag cleavage is described for the full-length proteins; also called stratifin; SFN; source: E. coli BL21(DE3), purified (HisTrap, SEC)
T2 sequence (looked up): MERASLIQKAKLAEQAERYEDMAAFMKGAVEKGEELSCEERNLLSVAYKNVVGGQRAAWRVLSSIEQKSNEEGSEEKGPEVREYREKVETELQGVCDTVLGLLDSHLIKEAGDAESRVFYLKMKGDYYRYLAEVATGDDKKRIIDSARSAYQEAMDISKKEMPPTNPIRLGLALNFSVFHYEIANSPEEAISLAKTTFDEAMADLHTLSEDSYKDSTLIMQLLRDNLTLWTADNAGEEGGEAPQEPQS
Description: fluorescence polarisation; competition: dilution series of acetylated peptide (starting concentration 4000 µM) added to a premixed complex of 14-3-3σ (3 µM) and FITC-labeled RAF1 tracer (30 nM); 10 mM HEPES pH 7.4, 150 mM NaCl, 2 mM DTT, 0.01% Tween 20; 25 °C. The settings on record: both partners purified.

Where no end group is shown, it is not given here. [ ]: non-standard residue; d: D form. pT = C[C@@H](OP(=O)(O)O)[C@H](N)C(=O)O; pS = N[C@@H](COP(=O)(O)O)C(=O)O

Regarding B1, in data set [1], the binding result was “binds”. For B2, in data set [2], the affinity, expressed as Kd, was 2180 nM. As to PASATTLDQ (also: one phosphorylated Ser/Thr within Ser61–Thr64) [peptide 16, monophosphorylated APN 9-mer (noncanonical site of peptide 12)], the Kd in data set [3] and in data set [4] was more than 40 µM each time. On to TTNPASATT (also: one phosphorylated Ser/Thr within Ser61–Thr64) [peptide 14, monophosphorylated APN 9-mer (noncanonical site of peptide 10)], for which the Kd in data set [3] and in data set [4] was more than 40 µM in each case.

As for B3, the “stoichiometry N” value in data set [5] was 1.05.

B4: peptide 11, APN 36–73 pSer43 pThr63, as used in ITC and co-crystallisation (peptide, UniProt P15144 36-73, looked up)
peptide: EKNKNAN[pS]SPVASTTPSASATTNPASA[pT]TLDQSKAWNR
notes: aminopeptidase N (APN, CD13), human, residues 36-73; also called bis-phosphorylated peptide 11; source: synthetic peptide (Fmoc SPPS, HPLC purified)
Consider B4, for which the binding result with 14-3-3σ ΔC (aa 1–231) was “binds”. On to NPASA[pT]TLD [peptide 15, monophosphorylated APN 9-mer pThr63 (site 2)], for which the dissociation constant Kd in data set [3] and in data set [4] was more than 40 µM in each case.

B5: acetylated (label-free, unlabeled) peptide 1, APN 38–46 pSer43 (peptide)
peptide: Ac-NKNAN[pS]SPV
notes: aminopeptidase N (APN, CD13), human, residues 38-46; also called acetylated peptide 1; label-free peptide 1; source: synthetic peptide (Fmoc SPPS, HPLC purified)
Turning to B5, the half-inhibitory concentration (IC50) in data set [6] amounted to 18.8 ± 1.5 µM.

B6: acetylated (unlabeled) RAF1 peptide (peptide)
peptide: Ac-RQRST[pS]TPN
notes: source: synthetic peptide (Fmoc SPPS, HPLC purified)
On to B6, for which, in data set [6], the IC50 is 13.4 ± 0.7 µM.
